Data as given in patent CN116203146A (BEIJING DONGFANG BIOTECH CO LTD, dated 2023).
Read-outs that look alike come from different tables or passages of the source.

Tests used:
[1] = target: T1, 人单核细胞白血病细胞(THP-1)表面LILRB4 (human, UniProt Q8NHJ6 22-448); test: cell-based or functional assay
[2] = target: T1, 人单核细胞白血病细胞(THP-1)表面LILRB4; test: cell-based or functional assay; remark: listed apart in the source

Row | Binder | IC50, inhibition of ARG1 secretion by THP-1 cells in the presence of ApoE (arginase activity kit) [1] [µg/mL] | IC50, inhibition of ARG1 secretion by THP-1 cells in the presence of ApoE (arginase activity kit) [2] [µg/mL]
1 | MA-Ⅰ 鼠源抗LILRB4单克隆抗体 (mouse IgG1/Cκ) (antibody) heavy: not shown light: DIVMTQTTLSLPVSPGDQASISCRSSQSLAHSNGNTYLHWYLQKPGQSPKLLIYKVSNRFSGVPDRFSGSGSGTDFTLKISRVEAEDLGVYFCSQSTLVPTFGGGTKLEIKADAAPTVSIFPPSSEQLTSGGASVVCFLNNFYPKDINVKWKIDGSERQNGVLNSWTDQDSKDSTYSMSSTLTLTKDEYERHNSYTCEATHKTSTSPIVKSFNRNEC | 23.9 | –
2 | MB-Ⅰ 鼠源抗LILRB4单克隆抗体 (mouse IgG1/Cκ) (antibody) heavy: QVQLQESGAELVKPGASVKLSCKASGYTFTNYWMHWVKQRPGQGLEWIGEINPSNGRTNYNEKFKTKATLTVDKSSSTAYMQLSSLTSEDSAVYYCARWGQLGLREGYYAVDYWGQGTSVTVSSAKTTPPSVYPLAPGSAAQTNSMVTLGCLVKGYFPEPVTVTWNSGSLSSGVHTFPAVLQSDLYTLSSSVTVPSSTWPSETVTCNVAHPASSTKVDKKIVPRDCGCKPCICTVPEVSSVFIFPPKPKDVLTITLTPKVTCVVVDISKDDPEVQFSWFVDDVEVHTAQTQPREEQFNSTFRSVSELPIMHQDWLNGKEFKCRVNSAAFPAPIEKTISKTKGRPKAPQVYTIPPPKEQMAKDKVSLTCMITDFFPEDITVEWQWNGQPAENYKNTQPIMDTDGSYFVYSKLNVQKSNWEAGNTFTCSVLHEGLHNHHTEKSLSHSPG light: DIVMTQSPSSLSASLGDRVTISCRASQDISNYLNWYQQKPDGTVKLLIYYTSRLHSGVPSRFSGSGSGTDYSLTISNLEQEDIATYFCQQGNTLPPTFGGGTKLEIKADAAPTVSIFPPSSEQLTSGGASVVCFLNNFYPKDINVKWKIDGSERQNGVLNSWTDQDSKDSTYSMSSTLTLTKDEYERHNSYTCEATHKTSTSPIVKSFNRNEC | 46 | –
3 | 人源化抗LILRB4单克隆抗体HA-Ⅱ (human IgG1/Cκ) (antibody, V domains shown) VH: EVQLVESGGGLVKPGGSLRLSCAASGFTFSSYTMSWVRQAPGKGLEWVATISSGGTYTYYPDSVKGRFTISRDNAKNSLYLQMNSLRAEDTAVYYCARDGYDGFDYWGQGTTVTVSS VL: DIVMTQTPLSLSVTPGQPASISCRSSQSLAHSNGNTYLHWYLQKPGQSPQLLIYKVSNRFSGVPDRFSGSGSGTDFTLKISRVEAEDVGVYFCSQSTHVPTFGGGTKVEIKR | – | 250

Further lines, results first:

Row | IC50, inhibition of ARG1 secretion by THP-1 cells in the presence of ApoE (arginase activity kit) [1] [µg/mL] | IC50, inhibition of ARG1 secretion by THP-1 cells in the presence of ApoE (arginase activity kit) [2] [µg/mL] | Binder
4 | – | 98.5 | 人源化抗LILRB4单克隆抗体HA-Ⅲ (human IgG1/Cκ) (antibody, V domains shown) VH: EVQLVESGGGLVKPGGSLRLSCAASGFTFSSYTMSWVRQAPGKGLEWVATISSGGTYTYYPDSVKGRFTISRDNAKNSLYLQMNSLRAEDTAVYYCTRDGYDGFDYWGQGTTVTVSS VL: DIVMTQTPLSLSVTPGQPASISCRSSQSLAHSNGNTYLHWYLQKPGQSPKLLIYKVSNRFSGVPDRFSGSGSGTDFTLKISRVEAEDVGVYFCSQSTHVPTFGGGTKVEIKR
5 | – | 31.2 | 人源化抗LILRB4单克隆抗体HA-Ⅰ (human IgG1/Cκ) (antibody, V domains shown) VH: EVQLVESGGGLVKPGGSLRLSCAASGFTFSSYTMSWVRQAPGKGLEWVSTISSGGTYTYYPDSVKGRFTISRDNAKNSLYLQMNSLRAEDTAVYYCARDGYDGFDYWGQGTTVTVSS VL: DIVMTQTPLSLSVTPGQPASISCRSSQSLAHSNGNTYLHWYLQKPGQSPQLLIYKVSNRFSGVPDRFSGSGSGTDFTLKISRVEAEDVGVYYCSQSTHVPTFGGGTKVEIKR
